Data from patent US20140087995A1 (published 2014).
Numbering of substitutions follows the chain as printed. Blank lines part the entries; values can stand above or below the binder they belong to. Numbered stars: 1 amine (or outer) side, 2 acyl side, 3 side chain; on linkers, the order of the positions; unused ones are H or OH. Bridge positions count the residues as written; N and C are the ends. * marks the point of attachment. C20 diacid = O=C(O)CCCCCCCCCCCCCCCCCCC(=O)*; γGlu = O=C(O)[C@H](CCC(=O)[*:2])N[*:1]; AEEA = NCCOCCOCC(=O)O

What was measured:
[1] = biological target: T1, human amylin receptor (amylin 3(a) receptor: human calcitonin receptor plus RAMP-3) (human, UniProt P30988 25-474; O60896 24-148, limits assumed); experiment: SPA competition binding, membranes of Amylin 3(a)/CRE-luc BHK cells, displacement of 125I-rat amylin (Assay V)
T1 construct: whole, on cells; the functional assay (Assay IIa) used the whole cells; also called hAmylin-R; hAmylinR
T1 sequence (looked up) 1: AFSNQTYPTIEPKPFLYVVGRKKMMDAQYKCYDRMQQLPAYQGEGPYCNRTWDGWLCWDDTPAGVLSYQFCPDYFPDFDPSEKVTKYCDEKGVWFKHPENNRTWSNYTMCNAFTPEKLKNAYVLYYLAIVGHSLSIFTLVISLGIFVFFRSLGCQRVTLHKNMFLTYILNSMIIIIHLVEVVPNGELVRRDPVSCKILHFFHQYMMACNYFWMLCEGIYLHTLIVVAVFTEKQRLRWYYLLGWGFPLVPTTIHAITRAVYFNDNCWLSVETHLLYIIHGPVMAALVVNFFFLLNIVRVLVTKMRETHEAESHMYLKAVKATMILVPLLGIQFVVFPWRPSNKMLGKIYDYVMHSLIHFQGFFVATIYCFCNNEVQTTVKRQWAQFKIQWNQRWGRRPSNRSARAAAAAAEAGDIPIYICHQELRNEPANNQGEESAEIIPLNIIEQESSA
T1 sequence (looked up) 2: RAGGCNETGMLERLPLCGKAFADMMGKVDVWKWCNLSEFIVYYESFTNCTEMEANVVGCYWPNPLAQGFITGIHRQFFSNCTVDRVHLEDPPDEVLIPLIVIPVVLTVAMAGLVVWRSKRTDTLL
Description: The binding assay was performed using scintillation proximity assay (SPA) beads (RPNQ0001) from PerkinElmer and cell membranes from the Amylin 3(a)/CRE-luc cells (as described in Assay (II)) were used. Membranes were prepared in the following way; the cells were rinsed with PBS and incubated with Versene for approximately 5 min before harvesting. The cells were flushed with PBS and the cell-suspension was centrifuged for 5 min at 1000 rpm. Cells were homogenized (ultrathurrax) in a buffer containing 20 mM Na-HEPES and 10 mM EDTA (pH 7.4) and centrifuged at 20.000 rpm for 15 min. The resulting pellet was resuspended, homogenized and centrifuged (20.000 rpm, 15 min) in a buffer containing 20 mM Na-HEPES and 0.1 mM EDTA (pH 7.4, buffer 2). The resulting pellet was resuspended in buffer 2 and protein concentration was measured (BCA protein Assay, Pierce). The homogenate was kept cold during the whole procedure. The membranes were kept at −80° C. until use. The assay was performed in a 384 well Optiplate (PerkinElmer) in a total volume of 40 ul. Membranes were mixed with SPA beads. Final concentration of membranes 35 ng/μL final and SPA beads was 0.05 mg/well. Test-compounds were dissolved in DMSO and further diluted in assay buffer (50 mM Hepes, pH 7.4, 1 mM CaCl2, 5 mM MgCl₂, 0.1% OA and 0.02% Tween20). […] The final mixture was incubated with shaking at 400 rpm for 120 min at 25° C. prior to centrifugation (1500 rpm, 10 min). Samples were analyzed on TopCounter™ (Packard). The IC₅₀ was calculated using (one site binding competition analysis) GraphPad Prism5 as a measure of receptor affinity.

[2] = biological target: T1, human amylin receptor (amylin 3(a) …); experiment: cell-based or functional assay
[3] = biological target: T2, human calcitonin receptor (human, UniProt P30988 25-474); experiment: cell-based or functional assay
T2 sequence (looked up): T1 sequence (looked up) 1

- IC50 [1]: 0.143 nM
- hAmylin-R funct. EC50 [2]: 175 pM
- Ratio hCT/hAmylin funct. (hCTR EC50 against hAmylin-R EC50) [3]: 7.4
- hCTR funct. EC50 [3]: 1290 pM
B1: N^α1-[(4S)-4-carboxy-4-(19-carboxynonadecanoylamino)butanoyl]-[Glu14,Arg17,Pro21,Pro27]-h-amylin (peptide)
peptide: KCNTATCATQRLAEFLRHSSPNFGAIPSSTNVGSNTY
modifications: C20 diacid-gGlu on the alpha amino group of the N-terminal residue; Cys2-Cys7 disulfide and C-terminal amide as in human amylin
notes: also called compound 9

- IC50 [1]: 0.577 nM
- hAmylin-R funct. EC50 [2]: 99 pM
- Ratio hCT/hAmylin funct. (hCTR EC50 against hAmylin-R EC50) [3]: 8.7
- hCTR funct. EC50 [3]: 857 pM
B2: N^α1-[(4S)-4-carboxy-4-(19-carboxynonadecanoylamino)butanoyl]-[Arg17,Pro21,Pro27,Pro34,Glu35]-h-amylin (peptide)
peptide: {C20 diacid-γGlu}-KCNTATCATQRLANFLRHSSPNFGAIPSSTNVGPETY-NH2
modifications: disulfide 2-7
SMILES: CC[C@H](C)[C@H](NC(=O)[C@H](C)NC(=O)CNC(=O)[C@H](Cc1ccccc1)NC(=O)[C@H](CC(N)=O)NC(=O)[C@@H]1CCCN1C(=O)[C@H](CO)NC(=O)[C@H](CO)NC(=O)[C@H](Cc1c[nH]cn1)NC(=O)[C@H](CCCNC(=N)N)NC(=O)[C@H](CC(C)C)NC(=O)[C@H](Cc1ccccc1)NC(=O)[C@H](CC(N)=O)NC(=O)[C@H](C)NC(=O)[C@H](CC(C)C)NC(=O)[C@H](CCCNC(=N)N)NC(=O)[C@H](CCC(N)=O)NC(=O)[C@@H](NC(=O)[C@H](C)NC(=O)[C@@H]1CSSC[C@H](NC(=O)[C@H](CCCCN)NC(=O)CC[C@H](NC(=O)CCCCCCCCCCCCCCCCCCC(=O)O)C(=O)O)C(=O)N[C@@H](CC(N)=O)C(=O)N[C@@H]([C@@H](C)O)C(=O)N[C@@H](C)C(=O)N[C@@H]([C@@H](C)O)C(=O)N1)[C@@H](C)O)C(=O)N1CCC[C@H]1C(=O)N[C@@H](CO)C(=O)N[C@@H](CO)C(=O)N[C@H](C(=O)N[C@@H](CC(N)=O)C(=O)N[C@H](C(=O)NCC(=O)N1CCC[C@H]1C(=O)N[C@@H](CCC(=O)O)C(=O)N[C@H](C(=O)N[C@@H](Cc1ccc(O)cc1)C(N)=O)[C@@H](C)O)C(C)C)[C@@H](C)O
notes: also called compound 29

- IC50 [1]: 0.217 nM
- hAmylin-R funct. EC50 [2]: 80 pM
- Ratio hCT/hAmylin funct. (hCTR EC50 against hAmylin-R EC50) [3]: 3.6
- hCTR funct. EC50 [3]: 285 pM
B3: N^α1-[2-[2-[2-[[2-[2-[2-[[(4S)-4-carboxy-4-(19-carboxynonadecanoylamino)butanoyl]amino]ethoxy]ethoxy]acetyl]amino]ethoxy]ethoxy]acetyl]-[Glu14,Arg17,Pro21,Pro27 … (peptide)
peptide: {C20 diacid-γGlu-AEEA-AEEA}-KCNTATCATQRLAEFLRHSSPNFGAIPSSTNVGSNTP-NH2
modifications: disulfide 2-7
SMILES: CC[C@H](C)[C@H](NC(=O)[C@H](C)NC(=O)CNC(=O)[C@H](Cc1ccccc1)NC(=O)[C@H](CC(N)=O)NC(=O)[C@@H]1CCCN1C(=O)[C@H](CO)NC(=O)[C@H](CO)NC(=O)[C@H](Cc1c[nH]cn1)NC(=O)[C@H](CCCNC(=N)N)NC(=O)[C@H](CC(C)C)NC(=O)[C@H](Cc1ccccc1)NC(=O)[C@H](CCC(=O)O)NC(=O)[C@H](C)NC(=O)[C@H](CC(C)C)NC(=O)[C@H](CCCNC(=N)N)NC(=O)[C@H](CCC(N)=O)NC(=O)[C@@H](NC(=O)[C@H](C)NC(=O)[C@@H]1CSSC[C@H](NC(=O)[C@H](CCCCN)NC(=O)COCCOCCNC(=O)COCCOCCNC(=O)CC[C@H](NC(=O)CCCCCCCCCCCCCCCCCCC(=O)O)C(=O)O)C(=O)N[C@@H](CC(N)=O)C(=O)N[C@@H]([C@@H](C)O)C(=O)N[C@@H](C)C(=O)N[C@@H]([C@@H](C)O)C(=O)N1)[C@@H](C)O)C(=O)N1CCC[C@H]1C(=O)N[C@@H](CO)C(=O)N[C@@H](CO)C(=O)N[C@H](C(=O)N[C@@H](CC(N)=O)C(=O)N[C@H](C(=O)NCC(=O)N[C@@H](CO)C(=O)N[C@@H](CC(N)=O)C(=O)N[C@H](C(=O)N1CCC[C@H]1C(N)=O)[C@@H](C)O)C(C)C)[C@@H](C)O
notes: also called compound 20

- IC50 [1]: 1.14 nM
- hAmylin-R funct. EC50 [2]: 433 pM
- Ratio hCT/hAmylin funct. (hCTR EC50 against hAmylin-R EC50) [3]: 23.1
- hCTR funct. EC50 [3]: 10000 pM
B4: N^α1-[2-[2-[2-[[2-[2-[2-[[(4S)-4-carboxy-4-(19-carboxynonadecanoylamino)butanoyl]amino]ethoxy]ethoxy]acetyl]amino]ethoxy]ethoxy]acetyl]-[Arg17,Pro21,Pro27]-h-am … (peptide)
peptide: B1 peptide with E14N
modifications: C20 diacid-gGlu-2xOEG on the alpha amino group of the N-terminal residue; Cys2-Cys7 disulfide and C-terminal amide as in human amylin
notes: also called compound 24

- IC50 [1]: 1.14 nM
- hAmylin-R funct. EC50 [2]: 313 pM
- Ratio hCT/hAmylin funct. (hCTR EC50 against hAmylin-R EC50) [3]: 8.4
- hCTR funct. EC50 [3]: 2620 pM
B5: N^α1-[(4S)-4-carboxy-4-(19-carboxynonadecanoylamino)butanoyl]-[Arg17,Pro21,Pro27,Lys35]-h-amylin (peptide)
peptide: B1 peptide with E14N, N35K
modifications: C20 diacid-gGlu on the alpha amino group of the N-terminal residue; Cys2-Cys7 disulfide and C-terminal amide as in human amylin
notes: also called compound 34
